# Test results: PMC11117068
# Molecular target: complement C3b (UniProt P01024)
# Test: not stated; C3b binding affinity of polymorphic variants, data in Supplementary Table S3
substance,measurement,value
moss-produced factor H Val62/His402 variant (from UniProt P08603 19-1231) (natural protein),fold lower C3b binding affinity than the CPV-101 Ile62/Tyr402 variant,1.5 fold
